According to patent publication US20170192014A1 (PDL BIOPHARMA, published 2017):
Ends that are not written are not given here. * marks the point of attachment. Biotin = O=C1N[C@H]2[C@H](CS[C@H]2CCCCC(=O)*)N1

Tests used:
[1] = molecular target: T1, full length recombinant cytokeratin 18 protein (rCK18) (human, UniProt P05783 1-430); assay: Western blot
T1 construct: The exact recombinant construct, including any tags, is not described; also called recombinant full length CK18 protein; full-length (untreated) CK18
T1 sequence: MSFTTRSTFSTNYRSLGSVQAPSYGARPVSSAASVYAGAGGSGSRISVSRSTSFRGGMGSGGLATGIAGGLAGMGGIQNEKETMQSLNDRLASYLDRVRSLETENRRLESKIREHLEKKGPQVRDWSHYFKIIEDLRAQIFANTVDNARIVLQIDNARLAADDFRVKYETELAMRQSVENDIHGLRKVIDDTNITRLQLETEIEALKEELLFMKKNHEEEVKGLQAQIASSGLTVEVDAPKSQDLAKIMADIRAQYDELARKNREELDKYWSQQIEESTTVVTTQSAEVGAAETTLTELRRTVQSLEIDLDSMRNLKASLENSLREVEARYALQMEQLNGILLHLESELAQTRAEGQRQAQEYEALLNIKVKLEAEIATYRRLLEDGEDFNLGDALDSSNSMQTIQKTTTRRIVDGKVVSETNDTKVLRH
Protocol: (§1) FIG. 4 is a photographic reproduction of a Western Blot Analysis using the mAb 3C2 (Lane 1, marker proteins; Lane 2, blank; Lane 3, 1 μg recombinant full length CK18 protein (rCK18); Lane 4, 12 μL of SK-BR3 apoptotic cell supernatant; Lane 5, 12 μL of SK-BR3 cell supernatant). Proteins were run in a 14% Tris/Glycine gel. The concentrations for the test material were 1 μg of rCK18 and 12 μL of SK-BR-3 apoptotic supernatant and SK-BR-3 Cell Lysate. The proteins were run at 150 V constant until the dye front reached the end of the gel. The proteins were then transferred to nitrocellulose. The nitrocellulose was blocked and probed with the 3C2 mAb at 1 μg/mL for 60 minutes. The membrane was washed three times and probed with a goat anti-mouse IgG ALK for 30 minutes. The membrane was washed three times and developed with using a WesternBreeze® kit from Invitrogen™ (Cat # WB7104).

[2] = molecular target: T2, full length CK18 from a cell extract of SK-BR-3 cells (human, UniProt P05783 1-430); assay: Western blot
T2 construct: Endogenous CK18 of the human breast cancer cell line SK-BR-3, seen on a Western blot; also called SK-BR3 cell supernatant (lane 5)
T2 sequence: T1 sequence
Protocol: as §1

[3] = molecular target: T3, human CK18 protein fragment M1-D238 from apoptotic SK-BR3 cells (human, UniProt P05783 1-238); assay: Western blot
T3 construct: Endogenous fragment in the supernatant or lysate of SK-BR-3 cells induced to become apoptotic; also called fragment B; caspase-cleaved CK18 fragment
T3 sequence: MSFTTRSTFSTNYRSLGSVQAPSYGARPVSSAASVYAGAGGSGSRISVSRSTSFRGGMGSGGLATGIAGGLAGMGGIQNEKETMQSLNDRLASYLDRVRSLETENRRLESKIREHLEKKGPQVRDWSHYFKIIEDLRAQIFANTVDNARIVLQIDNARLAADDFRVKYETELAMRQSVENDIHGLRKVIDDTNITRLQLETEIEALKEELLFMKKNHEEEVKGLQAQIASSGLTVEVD
Protocol: as §1

[4] = molecular target: T4, biotin conjugated CK18 peptide ^229ASSGLTVEVD (A229-D238) (human); assay: immunoassay on biotin peptides on NeutrAvidin-coated 96-well plate
T4 construct: also called peptide P1
T4 peptide: Biotin-ASSGLTVEVD
Protocol: (§2) The specificity of monoclonal antibody 3C2 was also assessed in an immunoassay against the peptides ²²⁹[…] (SEQ ID NO:1), ²²⁹[…] (SEQ ID NO:12) and ³⁸⁸[…] (SEQ ID NO:13) (each conjugated with biotin at their amino-terminus), which were added to a 96-well microplate coated with NeutrAvidin® by Invitrogen™. Human cytokeratin 18 protein fragment A239-D397 was also produced by the action of caspase 3 during cellular apoptosis and ends in the sequence ³⁹⁴DALD (SEQ ID NO:9). These peptides were incubated with mAb 3C2, M30 antibody (Enzo Life Sciences®, ALX-804-590) or other unrelated mAbs.

[5] = molecular target: T5, biotin conjugated CK18 peptide ^229ASSGLTVEV (A229-V237) (human); assay: as above
T5 peptide: Biotin-ASSGLTVEV
Protocol: as §2

[6] = molecular target: T6, biotin conjugated CK18 peptide ^388EDFNLGDALD (human); assay: as above
T6 peptide: Biotin-EDFNLGDALD
Protocol: as §2

[7] = molecular target: T7, biotin conjugated CK18 peptide ^239APKSQDLAKI (A239-I248) (human, also: biotin conjugated); assay: ECL assay, hybridoma supernatant on biotin peptide on streptavidin beads
T7 peptide: APKSQDLAKI
Text: (§3) Caspases 3 and 6 generated three CK18 protein fragments having the sequences M1-D238 (SEQ ID NO:4), A239-D397 and 5398-H430. A monoclonal antibody specific for the carboxy terminus of human caspase-cleaved cytokeratin CK18 protein fragment having amino acids M1-D238 (SEQ ID NO:4) was generated by immunizing mice with a short peptide sequence of ²²⁹[…] (SEQ ID NO:1) (designated as peptide P1 for the Examples). Mouse sera were screened for a positive response to peptide P1. Splenocytes from mice with a positive response were fused with myeloma cells and cell culture fluid from the resulting hybridomas screened against peptide P1. Supernatant from hybridoma cells producing antibody with a positive response to peptide P1 were further screened by an electrochemiluminescence (ECL) assay against biotin conjugated peptides ²³⁹[…] (SEQ ID NO:10), ²⁴⁰[…] (SEQ ID NO:11), ²²⁹[…] (SEQ ID NO:1) and ²²⁹[…] (SEQ ID NO:12), which were each bound to streptavidin coated paramagnetic beads. Peptides ²²⁹[…] (SEQ ID NO:1) and ²²⁹[…] (SEQ ID NO:12) represent the amino acid sequences A229-D238 and A229-V237 of cytokeratin 18 protein while peptides ²³⁹[…] (SEQ ID NO:10) and ²⁴⁰[…] (SEQ ID NO:11) represent the amino acid sequences A239-1248 and K240-1248 of cytokeratin 18.

[8] = molecular target: T8, biotin conjugated CK18 peptide ^240PKSQDLAKI (human, also: biotin conjugated); assay: as above
T8 peptide: PKSQDLAKI
Text: as §3

[9] = molecular target: T9, recombinant human CK18 protein fragment B (rCK18fB) (human, UniProt P05783 1-238); assay: sandwich ECL assay, capture biotin-3C2 on streptavidin beads, detector TAG-C-04, in normal human serum
T9 construct: also called recombinant CK-18 fragment B protein
T9 sequence: T3 sequence
Protocol: A recombinant human CK18 protein fragment B (rCK18fB) was prepared using standard procedures. An immunoassay consisted of incubating 50 μL rCK18fB (0, 206, 617, 1852, 5557, 16667, 50,000 and 100,000 U/L) spiked into normal human serum with 50 μL of reaction mix consisting of biotinylated mAb 3C2/streptavidin coated paramagnetic beads and anti-CK18 TAG labeled antibody C-04 for 60 minutes at room temperature with shaking. The bead complex was washed twice, suspended in buffer and read on an ECL analyzer. The results shown in FIG. 6, a representative standard curve, indicate rCK18fB is detectable over a range of 0-100,000 U/L (1 U/L=1000 pg=0.037 pM).

- binding result [2]: no binding
- binding result [3]: binds
- binding result [4]: binds
- binding result [5]: no binding
- binding result [6]: no binding
- binding result [7]: no binding
- binding result [8]: no binding
- binding result [9]: binds
B1: monoclonal antibody 3C2 (antibody, V domains shown)
VH: DVQLVESGGGLVQPGGSRKLSCAASGFTFSSFGMHWVRQAPEKGLEWVAYINGGSTIIYYADTVKGRFTVSRDNPKNTLFLQMTSLRSDDTAMYFCVRRTPTAAGGAMDYWGQGTSVTVSS
VL: NIMVTQSPSSLAVSAGEKVTMTCKSSQSLFYSSNQKNYLAWFQQKPGQSPKLLIYWASTRESGVADRFTGSGYGTDFTLTISSVQAEDLAVYYCQQYLSSWTFGGGTKVEIK
notes: Mouse hybridoma monoclonal antibody, detected with goat anti-mouse IgG; also called mAb 3C2; anti-VEVD mAb
- binding result [1]: no binding (tested: 3C2 mAb at 1 µg/mL; 1 µg of rCK18)
